Source: IntAct's records for PubMed 19250911

Molecular target: T1, nbr1_human NBR1 (UniProt Q14596)
T1 sequence: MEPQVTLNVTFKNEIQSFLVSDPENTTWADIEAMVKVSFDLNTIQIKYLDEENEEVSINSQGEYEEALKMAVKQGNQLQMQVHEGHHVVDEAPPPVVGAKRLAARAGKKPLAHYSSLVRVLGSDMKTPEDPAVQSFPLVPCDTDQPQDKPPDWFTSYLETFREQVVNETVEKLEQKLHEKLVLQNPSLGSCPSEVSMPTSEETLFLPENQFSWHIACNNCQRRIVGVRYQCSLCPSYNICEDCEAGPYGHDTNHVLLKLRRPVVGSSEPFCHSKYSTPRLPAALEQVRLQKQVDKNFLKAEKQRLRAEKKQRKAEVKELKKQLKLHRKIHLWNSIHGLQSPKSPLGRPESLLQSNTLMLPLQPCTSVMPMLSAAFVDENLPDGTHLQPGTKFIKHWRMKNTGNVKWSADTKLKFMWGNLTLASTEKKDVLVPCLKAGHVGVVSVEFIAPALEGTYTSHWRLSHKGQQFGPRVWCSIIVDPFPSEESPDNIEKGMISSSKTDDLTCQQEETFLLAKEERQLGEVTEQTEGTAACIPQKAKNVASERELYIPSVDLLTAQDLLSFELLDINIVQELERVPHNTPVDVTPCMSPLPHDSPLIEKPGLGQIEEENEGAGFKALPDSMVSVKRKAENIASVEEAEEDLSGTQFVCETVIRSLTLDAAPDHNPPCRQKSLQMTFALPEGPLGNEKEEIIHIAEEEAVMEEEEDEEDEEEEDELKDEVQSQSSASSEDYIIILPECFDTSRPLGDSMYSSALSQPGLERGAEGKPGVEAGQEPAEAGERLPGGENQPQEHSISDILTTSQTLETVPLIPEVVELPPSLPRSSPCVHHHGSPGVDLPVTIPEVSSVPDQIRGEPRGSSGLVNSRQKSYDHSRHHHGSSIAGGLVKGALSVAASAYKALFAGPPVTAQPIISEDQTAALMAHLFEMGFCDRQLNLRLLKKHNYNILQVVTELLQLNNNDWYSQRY

Row | Substance | effect of a mutation on the interaction
1 | Microtubule-associated protein 1 light chain 3 beta (Homo sapiens) (from UniProt Q9GZQ8) R10A;R11A | decreasing interaction
2 | Microtubule-associated protein 1 light chain 3 beta (Homo sapiens) (from UniProt Q9GZQ8) R70A | disrupting interaction
